The target of assay [1] is PfoI restriction endonuclease, wild type (Pseudomonas fluorescens biovar 126). The assay is described as follows: SEC; analytical gel filtration on Superdex75 10/300; 10 mM Tris-HCl pH 7.5, 5 mM calcium chloride, with 150 mM NaCl ('low salt') or 300 mM KCl ('high salt'); 13.8 uM PfoI dimer with or without oligoduplex SP14-GF (1:1.2).
Assay [2] has the same target. The assay is described as follows: dynamic light scattering; PfoI-SP14 complex at various concentrations; Malvern Zetasizer uV; MW estimated from the apparent particle diameter.

For “PfoI restriction endonuclease, wild type (enzyme)”, the stoichiometry N in assay [1] and in assay [2] was 2 throughout.
